The record followed here is the supplement of paper PMC12764529.

A short description of series [1]: folding stability dG unfold from trypsin proteolysis; higher = more stable. Put shortly:
(§1)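 Designed mini-proteins with no cysteine and under 80 residues were kept only if AlphaFold2 dimer inter-PAE was above 15. In a PA-tagged cDNA display construct, they were digested with trypsin and chymotrypsin and then sequenced. K50 was inferred by Bayesian fitting of counts, and unfolding free energy was derived per protease or combined against a sequence-predicted unfolded-state K50 and a shared folded-state K50.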

The nature of series [2]: folding stability dG unfold from chymotrypsin proteolysis; higher = more stable. The method, boiled down:
as §1

The nature of series [3]: folding stability dG unfold (combined trypsin and chymotrypsin); higher = more stable. The method, boiled down: as §1

± gives the half width of the 95% confidence interval.

In the case of “SAGGSAGGSMGLNVTYTVNVTHPDGTVETFPFEFDGTPEEAEEFARAIAEAHPDVKVTVTPGASAGGSAGGS [r12_268_TrMRF]”, the figures for the “folding stability dG unfold” value in series [1], in series [2] and in series [3] were 3.06 ± 0.12 kcal/mol, 3.06 ± 0.037 kcal/mol and 3.05 ± 0.076 kcal/mol, respectively.

Regarding “SAGGSAGGSMGLVVRREDGTLVLFRLGEDGLEEFTVPLEDWLTVPEEFFDAIPPEEVDEATPESAGGSAGGS [r12_793_TrMRF]”, the “folding stability dG unfold” value came to 1.4 ± 0.15 kcal/mol in series [1], 1.9 ± 0.092 kcal/mol in series [2] and 1.69 ± 0.12 kcal/mol in series [3].

On to “SAGGSAGGSMGYLTEPDISVTRTPDGTVTVTTTNTTYDPSTGKKLSTTTTTTTVTLAPDEELLSAGGSAGGS [r12_1038_JUSTAS]”, for which the entries for the “folding stability dG unfold” value in series [1], in series [2] and in series [3] were 0.603 ± 0.056 kcal/mol, 0.628 ± 0.052 kcal/mol and 0.735 ± 0.11 kcal/mol, respectively.

For the sequence “SAGGSAGGSMIGTADGTPVPFEVTHAEVYEVTLPNGEKYYLIKAYDPSTGKYFVALIPAKDIASAGGSAGGS [r12_823_TrMRF]”, the “folding stability dG unfold” value in series [1] was 2.77 ± 0.11 kcal/mol; in series [2] it was 2.84 ± 0.052 kcal/mol; in series [3], 2.8 ± 0.1 kcal/mol.

Regarding “SAGGSAGGSMIVETEVEEGDGSAVTKTFYPDSVTTTVNTPDEVTVEKTFPDGTVETTTVPLSPSAGGSAGGS [r12_507_JUSTAS]”, the “folding stability dG unfold” value was 0.607 ± 0.028 kcal/mol in series [1], 0.967 ± 0.031 kcal/mol in series [2] and 0.896 ± 0.086 kcal/mol in series [3].

For the sequence “SAGGSAGGSMKIKIEVDKETGYIVIEAEPGETIEIEIGGKKIKMEVIENEDGSLYFVFKIEKPSAGGSAGGS [r12_970_TrROS_Hall]”, the “folding stability dG unfold” value in series [1] amounted to 2.23 ± 0.12 kcal/mol; in series [2], 4.06 ± 0.085 kcal/mol; in series [3] it was 3.6 ± 0.24 kcal/mol.

As for “SAGGSAGGSMKIKPGQVVKIKVEKDGKIYEFEAKIDPKTGKLVEIKSAEELKGLKIKEIEIVPSAGGSAGGS [r12_6_TrROS_Hall]”, the “folding stability dG unfold” value turned out to be 1.14 ± 0.027 kcal/mol in series [1], 2.274 ± 0.016 kcal/mol in series [2] and 1.99 ± 0.062 kcal/mol in series [3].

On to “SAGGSAGGSMKIRIERTPDKLTIMIPPDNPDKIKNIIDNFGYPITDVKVTQNPPGMHMIEIPLSAGGSAGGS [r12_493_TrROS]”, for which the “folding stability dG unfold” value in series [1] was found to be 1.58 ± 0.095 kcal/mol; in series [2], 1.47 ± 0.082 kcal/mol; in series [3], 1.51 ± 0.19 kcal/mol.

Regarding “SAGGSAGGSMKIVIVVDEDGSVRVRIEETGEEITFPKGMTAEEIAELLKKKFPNLEVEIVEVPSAGGSAGGS [r12_423_TrROS_Hall]”, the entries for the “folding stability dG unfold” value in series [1], in series [2] and in series [3] were 4.28 ± 0.19 kcal/mol, 3.09 ± 0.12 kcal/mol and 3.76 ± 0.24 kcal/mol, respectively.

For “SAGGSAGGSMKKITLTLTFPNGTTETLDITPLLEKSGLSPEEAIQLLKEELPENVTYKVTTEGSAGGSAGGS [r12_399_JUSTAS]”, the “folding stability dG unfold” value in series [1] was determined as 2.69 ± 0.083 kcal/mol; in series [2], 3.152 ± 0.03 kcal/mol; in series [3] it was 3.01 ± 0.084 kcal/mol.

Take “SAGGSAGGSMKPGEKVKVEIVSYDEKTKELTIKITYGPKKTKTITIKPKTKEEALEQLKKLLKSAGGSAGGS [r20_167_TrROS_Hall]”: the “folding stability dG unfold” value in series [1] came to 1.93 ± 0.17 kcal/mol; in series [2], 3.14 ± 0.051 kcal/mol; in series [3], 2.6 ± 0.27 kcal/mol.

Consider “SAGGSAGGSMKPVVDSKADPTSGPEKTLTLTLGDETVTHTVSSSESLTIPLPPNSTVSFEPLGSAGGSAGGS [r12_373_JUSTAS]”, for which the “folding stability dG unfold” value in series [1] amounted to 0.791 ± 0.021 kcal/mol; in series [2] it was 1.11 ± 0.02 kcal/mol; in series [3], 1.03 ± 0.042 kcal/mol.

Turning to “SAGGSAGGSMKTEVTVDEEGKYTVTVTPPDGSTVNLVVPPGDPAAAVAAAKAAGLEVEDIKAASAGGSAGGS [r12_891_JUSTAS]”, the “folding stability dG unfold” value was 0.0357 ± 0.061 kcal/mol in series [1], -0.241 ± 0.15 kcal/mol in series [2] and -0.21 ± 0.27 kcal/mol in series [3].

On to “SAGGSAGGSMKTIELPNGMKITVEKDEETGVYTITITFPDGSKKTITVPKGTSLEDLVIEIKPSAGGSAGGS [r12_261_TrROS_Hall]”, for which the “folding stability dG unfold” value in series [1] is 2.54 ± 0.095 kcal/mol; in series [2] it was 4.38 ± 0.21 kcal/mol; in series [3], 4.04 ± 0.13 kcal/mol.

For the sequence “SAGGSAGGSMKTTLLAEKELPDGTRVELTRVESPGSLTYEVVTVSPEGTEVRTLPPDELPYLLSAGGSAGGS [r12_315_JUSTAS]”, the “folding stability dG unfold” value in series [1] was 1.22 ± 0.082 kcal/mol; in series [2], 0.399 ± 0.23 kcal/mol; in series [3], 0.912 ± 0.15 kcal/mol.

Turning to “SAGGSAGGSMKTVEITIPFYSTTTDPVPSLGLLKTYLEEPEIKLKISPEEYKKLKKTPILKELSAGGSAGGS [r12_1015_JUSTAS]”, the “folding stability dG unfold” value is -0.229 ± 0.33 kcal/mol in series [1], 0.412 ± 0.26 kcal/mol in series [2] and 0.234 ± 0.27 kcal/mol in series [3].

In the case of “SAGGSAGGSMKVYRIKIEVDGKTYEIEVEMSEEEVKKLAEELGIKDVKIKKVEIEPVEEVEEKSAGGSAGGS [r12_292_TrROS_Hall]”, the “folding stability dG unfold” value in series [1] was determined as 0.859 ± 0.18 kcal/mol; in series [2] it was 2.07 ± 0.1 kcal/mol; in series [3], 1.92 ± 0.21 kcal/mol.
